Results on one molecule are retold here after paper PMC2886958 (The Journal of General Virology, 2008).

As a reminder, the Kd is the equilibrium constant for the complex coming apart.

For this assay, the target named is ACE-2–GFP, secreted form of angiotensin converting enzyme-2 fused to green fluorescent protein (UniProt Q9BYF1). Kind of assay: SPR; format not told in the text (Supplementary Fig. S2). (In general: SPR reads the build-up and loss of mass on a sensor chip optically.)
Chain of ACE-2–GFP, secreted form of angiotensin converting enzyme-2 fused to green fluorescent protein (Q9BYF1 18-740): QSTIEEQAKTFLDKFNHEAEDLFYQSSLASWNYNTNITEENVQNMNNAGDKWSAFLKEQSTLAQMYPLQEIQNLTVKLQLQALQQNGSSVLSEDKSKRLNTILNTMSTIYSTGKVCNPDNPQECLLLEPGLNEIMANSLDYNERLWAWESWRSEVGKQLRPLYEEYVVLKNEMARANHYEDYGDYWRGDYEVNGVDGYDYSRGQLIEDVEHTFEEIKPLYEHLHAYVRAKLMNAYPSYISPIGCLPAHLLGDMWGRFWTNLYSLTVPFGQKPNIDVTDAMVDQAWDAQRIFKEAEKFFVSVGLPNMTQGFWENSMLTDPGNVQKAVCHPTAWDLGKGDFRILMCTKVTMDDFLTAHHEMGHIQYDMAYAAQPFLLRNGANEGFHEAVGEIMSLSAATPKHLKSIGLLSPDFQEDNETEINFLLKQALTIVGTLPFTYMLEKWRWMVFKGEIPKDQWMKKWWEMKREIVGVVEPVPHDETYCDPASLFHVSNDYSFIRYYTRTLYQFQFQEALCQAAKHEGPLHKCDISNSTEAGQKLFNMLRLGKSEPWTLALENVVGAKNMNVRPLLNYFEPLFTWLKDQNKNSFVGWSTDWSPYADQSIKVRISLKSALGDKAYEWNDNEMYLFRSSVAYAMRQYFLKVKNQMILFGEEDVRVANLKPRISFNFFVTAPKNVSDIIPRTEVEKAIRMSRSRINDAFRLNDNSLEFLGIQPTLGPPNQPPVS

B1: SARS-CoV S1 (residues 19–713), Fc-tagged fusion protein (Fc fusion)
chain: not shown
As for B1, binding was characterised by a dissociation constant (Kd) of 87.1 nM.
